{
  "source": "patent US6642368B1",
  "about": "“Programmed cell death and caspase-12” (The General Hospital Corporation, priority 1998, dated 2003)",
  "molecules": {"B1": {"name": "caspase-12S: alternatively spliced short form of caspase-12, 349 amino acid residues (SEQ ID NO:14) (protein)", "chain": "MAARRTHERDPIYKIKEFSNDEDDGPQKICTPSSPSESKRKVEDDEMEVNAGLAHESHLMLTAPHGLQSSEVQDTLKLCPRDQFCKIKTERAKEIYPVMEKEGRTRLALIICNKKFDYLFDRDNADTDILNMQELLENLGYSVVLKENLTAQEMETELMQFAGRPEHQSSDSTFLVFMSHGILEGICGVKHRNKKPDVLHDDTIFKIFNNSNCRSLRNKPKILIMQACRGRYNGTIWVSTNKGIATADTDEERVLSCKWNNSITKAHVETDFIAFKSSTPHNISWKVGKTGSLFISKLIDCFKKYCWCYHLEEIFRKVQHSFEVPGELTQMPTIERVSMTRYFYLFPGN", "modifications": "lacZ fusion"}, "B2": {"name": "caspase-12Δ: truncated caspase-12, amino acid residues 95-419 of SEQ ID NO:2 (protein)", "chain": "GPQKICTPSSPSESKRKVEDDEMEVNAGLAHESHLMLTAPHGLQSSEVQDTLKLCPRDQFCKIKTERAKEIYPVMEKEGRTRLALIICNKKFDYLFDRDNADTDILNMQELLENLGYSVVLKENLTAQEMETELMQFAGRPEHQSSDSTFLVFMSHGILEGICGVKHRNKKPDVLHDDTIFKIFNNSNCRSLRNKPKILIMQACRGRYNGTIWVSTNKGIATADTDEERVLSCKWNNSITKAHVETDFIAFKSSTPHNISWKVGKTGSLFISKLIDCFKKYCWCYHLEEIFRKVQHSFEVPGELTQMPTIERVSMTRYFYLFPGN", "modifications": "lacZ fusion"}},
  "key": {"[1]": {"target": "T1, caspase-12Δ2 (Mus musculus, UniProt O08736)", "T1 construct": "made in house; host or cells: E. coli BL21(DE3) pLys", "test": "Inhibition of cleavage of pro-caspase-12 by purified caspase-12Δ2", "format": "biochemical", "conditions": "preincubation 1 mM DTNB 25° C. 60 min or 2 mM iodoacetamide 0° C. 60 min", "method": "ICE, casp-2 and casp-3 were cloned into a pET-15b vector (Novagen) and their expression was induced in the presence of 0.2-0.3 mM IPTG (Wang, S., et a., J. Biol. Chem. 271:20580-20587 (1996); Cryns, V. L., et al., J. Biol. Chem. 271:31277-31282 (1996)). Bacterial lysates containing the ICE-like proteases were prepared as described (Wang, S., et al., J. Biol. Chem. 271:20580-20587 (1996); Cryns, V. L., et al., J. Biol. Chem. 271:31277-31282 (1996)). [^35S]-labeled proteins were prepared by in vitro transcription and translation using a TNT coupled reticulocyte lysate system (Promega) and [^35S]methionine (Amersham). Labeled proteins were incubated at 37° C. with purified caspase-12Δ2 or at 30° C. with E. coli lysates containing the caspase family members. The reaction mixture contained 25 mM Hepes (pH 7.5) with 5 mM EDTA, 5 mM dithiothreitol, 10% sucrose, 10 μg/ml leupeptin and 250 μM phenylmethylsulfonyl fluoride. Amount of proteins used for cleavage reaction were: 0.1 μg for partially purified caspase-12Δ2, 25-70 μg for E. coli lysate. […] Cleavage products were analyzed by either 10- or 15% SDS-polyacrylamide gel electrophoresis. […]"}, "[2]": {"tested_on": "T2, pro-caspase-12 (caspase-12L, full-length precursor, 419 residues, 48 kDa)", "T2 sequence": "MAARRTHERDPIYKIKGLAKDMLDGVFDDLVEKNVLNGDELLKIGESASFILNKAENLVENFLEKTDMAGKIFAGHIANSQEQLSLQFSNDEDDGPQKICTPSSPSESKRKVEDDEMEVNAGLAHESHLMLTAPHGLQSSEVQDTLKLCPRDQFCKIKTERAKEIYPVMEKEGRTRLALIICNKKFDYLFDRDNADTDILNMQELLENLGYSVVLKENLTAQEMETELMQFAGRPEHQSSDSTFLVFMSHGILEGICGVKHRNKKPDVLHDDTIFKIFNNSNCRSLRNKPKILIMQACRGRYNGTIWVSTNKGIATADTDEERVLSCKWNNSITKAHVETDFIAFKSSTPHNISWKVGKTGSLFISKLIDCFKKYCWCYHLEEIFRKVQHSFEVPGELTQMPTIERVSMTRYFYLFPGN"}, "[3]": {"tested_on": "T3, caspase-12Δ (Gly95-Asn419 of caspase-12L, with an artificial initiation codon), [35S]-labeled", "T3 sequence": "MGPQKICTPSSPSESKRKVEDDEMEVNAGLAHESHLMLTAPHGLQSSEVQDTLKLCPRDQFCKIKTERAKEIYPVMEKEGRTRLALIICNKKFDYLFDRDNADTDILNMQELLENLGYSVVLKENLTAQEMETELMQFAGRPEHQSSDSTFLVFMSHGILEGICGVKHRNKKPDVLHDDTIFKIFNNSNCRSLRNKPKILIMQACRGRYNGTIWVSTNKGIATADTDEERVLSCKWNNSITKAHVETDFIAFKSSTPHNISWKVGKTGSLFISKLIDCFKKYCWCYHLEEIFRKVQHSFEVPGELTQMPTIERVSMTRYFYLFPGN"}, "[4]": {"tested_on": "Rat-1/bcl-2", "test": "Effect of cell death suppressor bcl-2 on caspase-12 killing activity", "format": "cell-based", "method": "FIGS. 5A-5B. Effect of cell death suppressors on the killing activity of caspase-12. […] Cell death was assayed as described in FIG. 4C. […] The data from transfection of the parental cell line, Rat-1 (FIG. 4C), are included in the figures for comparison. The lacZ construct was also used for transfection as a control.\nTo determine if expression of bcl-2 and crmA can inhibit apoptosis induced by casp-12 overexpression, casp-12L-lacZ fusion construct was transfected into stable cell lines of Rat-1 that overexpresses either bcl-2 or crmA (Miura, M., et al., Cell 75:653-660 (1993)). Cell death was assayed as described above (Example 3). […] The magnitude of the bcl-2 suppression against toxicity of casp-12 overexpression was about 10% (60% for Rat-1, 50% for Rat-1/bcl-2) which is much smaller than that observed for ICE and casp-2 (FIG. 5A; Wang, L., et al., Cell 78:739-750 (1994))."}, "[5]": {"tested_on": "Rat-1 cells", "test": "Cell death induced by transient overexpression of lacZ fusion constructs, X-gal staining", "format": "cell-based", "conditions": "lacZ fusion construct, 24 hr after transfection", "description": "FIGS. 4A-4C. Cell death induced by overexpression of caspase-12. […] The round cells expressing the casp-12L-lacZ fusion proteins show condensed and fragmented nuclei. […] The data shown are the percentage of round blue cells among total number of blue cells counted. In each transfection, over 200 blue cells were randomly chosen and counted. The data of Rat-1 cells collected from at least three independent experiments. The constructs used were: casp-12L-lacZ, casp-12S-lacZ, casp-12Δ-lacZ, ICE-lacZ, lacZ. Rat embryonic fibroblast cells (REF) were also transfected with either casp-12L-lacZ or lacZ.\nTo examine if expression of caspase-12 induces apoptosis, a transient expression system was used to overexpress caspase-12 in mammalian cells. […] Transfected cells are easily detected by staining with X-gal because of the β-galactosidase activity of lacZ. Expression constructs of casp-12L and casp-12S fused with lacZ gene in pcDNA3 vector, which contains the cytomegalovirus (CMV) promoter, were generated. These expression constructs were introduced into Rat-1 cells by transfection, and the expression of the genes were examined 24 hr after transfection using X-gal reaction.\nRat-1, rat embryonic fibroblast cells, NG108-15, HeLa and COS-1 were maintained in culture at 37° C. with 5% CO2 in Dulbecco's modified Eagle's medium containing 10% (v/v) fetal bovine serum (BioWhittaker) and 50 units/ml penicillin and 50 μg/ml streptomycin (Sigma). The day before transfection, cells were seeded at a density of 1.3×10^4 cells/cm^2. Expression constructs were transferred to cells with either calcium phosphate or lipofectamine (GIBCO BRL) as previously described (Miura, M., et al., Cell 75:653-660 (1993); Kumar, S., et al., Genes and Development 8:1613-1626 (1994); Wang, L., et al., Cell 78:739-750 (1994)). The expression of chimeric genes in cells was detected by staining of cells with 5-bromo-4-chloro-3-indolyl β-D-galactoside (X-gal) as previously described (Miura, M., et al., Cell 75:653-660 (1993); Kumar, S., et al., Genes and Development 8:1613-1626 (1994); Wang, L., et al., Cell 78:739-750 (1994)). Immunostaining of transfected cells was done as previously described using mouse monoclonal anti-lacZ antibody (Miura, M., et al., Cell 75:653-660 (1993); Kumar, S., et al., Genes and Development 8:1613-1626 (1994); Wang, L., et al., Cell 78:739-750 (1994))."}},
  "data": [
    {"molecule": "NC(=O)CI", "note": "[iodoacetamide]", "values": [
      {"measurement": "inhibition of proteolytic activity of caspase-12Δ2 by pretreatment with thiol reagent", "setting": "[1]", "result": "completely inhibited"}
    ]},
    {"molecule": "caspase-3 (E. coli lysate, expressed from pET-15b)", "values": [
      {"measurement": "in vitro cleavage of [35S]-labeled caspase-12 precursor by E. coli lysate containing the caspase", "setting": "[2]", "result": "caspase-2 and caspase-3 can cleave pro-caspase-12 protein, generating smaller fragments of about 40 kDa"},
      {"measurement": "in vitro cleavage of the [35S]-labeled truncated form", "setting": "[3]", "result": "Caspase-3 treatment of the truncated form did not produce any smaller fragments"}
    ]},
    {"molecule": "caspase-2 (E. coli lysate, expressed from pET-15b)", "values": [
      {"measurement": "in vitro cleavage of [35S]-labeled caspase-12 precursor by E. coli lysate containing the caspase", "setting": "[2]", "result": "Cleavage of pro-caspase-12 by caspase-2 generated a fragment of about 40 kDa at a lower cleavage efficiency, compared to caspase-3 digestion"}
    ]},
    {"molecule": "O=C(O)c1cc(SSc2ccc([N+](=O)[O-])c(C(=O)O)c2)ccc1[N+](=O)[O-]", "note": "[5,5′-dithio-bis(2-nitrobenzoic acid)]", "values": [
      {"measurement": "inhibition of proteolytic activity of caspase-12Δ2 by pretreatment with thiol reagent", "setting": "[1]", "result": "completely inhibited"}
    ]},
    {"molecule": "Bcl-2: mammalian cell death suppressor, homolog of C. elegans ced-9", "values": [
      {"measurement": "magnitude of bcl-2 suppression against toxicity of casp-12 overexpression", "setting": "[4]; 60% for Rat-1 versus 50% for Rat-1/bcl-2", "result": "about 10%"},
      {"measurement": "inhibition of cell death induced by overexpression of casp-12", "setting": "[4]; Rat-1/bcl-2, FIG. 5A", "result": "only very weakly inhibited"}
    ]},
    {"molecule": "B1", "values": [
      {"measurement": "percentage of cell death (round blue cells among total blue cells)", "setting": "[5]", "result": "about 60%"}
    ]},
    {"molecule": "B2", "values": [
      {"measurement": "percentage of cell death (round blue cells among total blue cells)", "setting": "[5]", "result": 60, "unit": "%"}
    ]}
  ]
}
